Test results as given in the supplement of paper PMC10065799, “High-throughput profiling of sequence recognition by tyrosine kinases and SH2 domains using bacterial peptide display” (eLife, 2023).

Legend:
Jak2 = Jak2 (UniProt O60674); test: phosphorylation enrichment, bacterial display (enrichment ratio); higher = better substrate or ligand; peptides without Tyr show the background
c-Src = test: as above
MERTK = MERTK (UniProt Q12866); test: as above
EPHB1 = EPHB1 (UniProt P54762); test: as above
Fes = Fes (UniProt P07332); test: as above
EPHB2 = EPHB2 (UniProt P29323); test: as above
c-Abl (mouse) = test: as above
Fer (mouse) = test: as above
FGFR3 = FGFR3 (UniProt P22607); test: as above
AncSZ = test: as above
FGFR1 = FGFR1 (UniProt P11362); test: as above
Fyn = Fyn (UniProt P06241); test: as above
Hck = Hck (UniProt P08631); test: as above
c-Src SH2 = test: SH2 binding enrichment of the phosphorylated peptide, bacterial display (enrichment ratio); higher = better substrate or ligand; peptides without Tyr show the background
SHP2-C SH2 = test: as above
Grb2 SH2 = Grb2 SH2 (UniProt P62993); test: as above
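Wherever SH2 binding enrichment of the phosphorylated peptide, bacterial display is given: peptide library displayed on the E. coli surface as eCPX fusions, selected cells deep-sequenced, score is each peptide's frequency after selection divided by its frequency in the input.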
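Wherever phosphorylation enrichment, bacterial display is given: 11-residue human phosphosite peptides and single-mutation variants displayed on the E. coli surface, counted by deep sequencing, each peptide's frequency after selection divided by its frequency in the unselected input library; frequency after pTyr selection over input frequency; kinase dosed for 20-30% of maximal phosphorylation in three min.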

Chain of FGFR3 (P22607 whole entry, looked up): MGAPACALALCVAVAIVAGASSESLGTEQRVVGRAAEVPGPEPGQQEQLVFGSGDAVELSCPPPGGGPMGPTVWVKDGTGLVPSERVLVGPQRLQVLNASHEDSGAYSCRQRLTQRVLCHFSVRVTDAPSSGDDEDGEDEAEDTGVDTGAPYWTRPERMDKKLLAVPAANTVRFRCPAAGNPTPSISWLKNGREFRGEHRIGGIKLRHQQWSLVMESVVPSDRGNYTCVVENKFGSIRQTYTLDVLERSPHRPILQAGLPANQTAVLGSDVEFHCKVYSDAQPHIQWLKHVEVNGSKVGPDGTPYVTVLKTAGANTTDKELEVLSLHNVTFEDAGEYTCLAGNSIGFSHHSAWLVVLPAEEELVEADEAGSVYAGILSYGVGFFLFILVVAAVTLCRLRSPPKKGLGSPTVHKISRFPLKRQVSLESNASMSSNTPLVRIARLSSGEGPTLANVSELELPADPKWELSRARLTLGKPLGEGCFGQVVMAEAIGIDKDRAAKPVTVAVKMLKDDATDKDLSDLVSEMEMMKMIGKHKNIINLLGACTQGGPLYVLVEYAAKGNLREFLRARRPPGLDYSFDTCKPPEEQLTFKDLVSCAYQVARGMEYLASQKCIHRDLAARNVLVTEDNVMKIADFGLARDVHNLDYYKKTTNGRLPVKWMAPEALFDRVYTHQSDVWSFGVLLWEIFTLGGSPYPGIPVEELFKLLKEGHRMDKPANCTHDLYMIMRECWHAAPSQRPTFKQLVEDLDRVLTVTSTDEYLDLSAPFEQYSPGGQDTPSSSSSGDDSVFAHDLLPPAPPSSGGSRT
Chain of MERTK (Q12866 whole entry, looked up): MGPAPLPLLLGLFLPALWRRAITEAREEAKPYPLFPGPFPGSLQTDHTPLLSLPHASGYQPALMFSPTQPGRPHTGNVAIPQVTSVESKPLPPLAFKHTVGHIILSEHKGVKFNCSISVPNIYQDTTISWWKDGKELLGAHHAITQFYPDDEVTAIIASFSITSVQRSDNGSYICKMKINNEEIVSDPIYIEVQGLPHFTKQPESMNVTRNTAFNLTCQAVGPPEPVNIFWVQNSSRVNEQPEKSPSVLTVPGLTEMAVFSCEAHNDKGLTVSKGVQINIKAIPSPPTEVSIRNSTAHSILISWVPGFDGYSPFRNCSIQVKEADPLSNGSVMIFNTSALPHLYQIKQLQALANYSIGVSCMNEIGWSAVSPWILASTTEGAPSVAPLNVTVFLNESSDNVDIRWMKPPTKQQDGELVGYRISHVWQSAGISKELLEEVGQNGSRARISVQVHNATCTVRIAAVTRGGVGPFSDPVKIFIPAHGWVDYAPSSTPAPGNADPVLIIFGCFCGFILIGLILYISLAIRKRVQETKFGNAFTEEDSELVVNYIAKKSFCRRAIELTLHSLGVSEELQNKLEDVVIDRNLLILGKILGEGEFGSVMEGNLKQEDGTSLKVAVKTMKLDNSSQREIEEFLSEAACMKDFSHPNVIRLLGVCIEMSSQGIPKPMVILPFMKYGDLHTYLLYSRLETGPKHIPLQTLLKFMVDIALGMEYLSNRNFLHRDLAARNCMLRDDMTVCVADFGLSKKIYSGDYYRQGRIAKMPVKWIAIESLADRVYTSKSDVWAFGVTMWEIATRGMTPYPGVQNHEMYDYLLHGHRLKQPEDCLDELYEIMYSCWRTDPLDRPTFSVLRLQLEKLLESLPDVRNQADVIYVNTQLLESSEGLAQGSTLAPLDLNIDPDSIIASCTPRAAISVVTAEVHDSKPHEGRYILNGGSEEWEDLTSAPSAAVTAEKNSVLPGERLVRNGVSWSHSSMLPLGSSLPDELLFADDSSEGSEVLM
Chain of EPHB2 (P29323 whole entry, looked up): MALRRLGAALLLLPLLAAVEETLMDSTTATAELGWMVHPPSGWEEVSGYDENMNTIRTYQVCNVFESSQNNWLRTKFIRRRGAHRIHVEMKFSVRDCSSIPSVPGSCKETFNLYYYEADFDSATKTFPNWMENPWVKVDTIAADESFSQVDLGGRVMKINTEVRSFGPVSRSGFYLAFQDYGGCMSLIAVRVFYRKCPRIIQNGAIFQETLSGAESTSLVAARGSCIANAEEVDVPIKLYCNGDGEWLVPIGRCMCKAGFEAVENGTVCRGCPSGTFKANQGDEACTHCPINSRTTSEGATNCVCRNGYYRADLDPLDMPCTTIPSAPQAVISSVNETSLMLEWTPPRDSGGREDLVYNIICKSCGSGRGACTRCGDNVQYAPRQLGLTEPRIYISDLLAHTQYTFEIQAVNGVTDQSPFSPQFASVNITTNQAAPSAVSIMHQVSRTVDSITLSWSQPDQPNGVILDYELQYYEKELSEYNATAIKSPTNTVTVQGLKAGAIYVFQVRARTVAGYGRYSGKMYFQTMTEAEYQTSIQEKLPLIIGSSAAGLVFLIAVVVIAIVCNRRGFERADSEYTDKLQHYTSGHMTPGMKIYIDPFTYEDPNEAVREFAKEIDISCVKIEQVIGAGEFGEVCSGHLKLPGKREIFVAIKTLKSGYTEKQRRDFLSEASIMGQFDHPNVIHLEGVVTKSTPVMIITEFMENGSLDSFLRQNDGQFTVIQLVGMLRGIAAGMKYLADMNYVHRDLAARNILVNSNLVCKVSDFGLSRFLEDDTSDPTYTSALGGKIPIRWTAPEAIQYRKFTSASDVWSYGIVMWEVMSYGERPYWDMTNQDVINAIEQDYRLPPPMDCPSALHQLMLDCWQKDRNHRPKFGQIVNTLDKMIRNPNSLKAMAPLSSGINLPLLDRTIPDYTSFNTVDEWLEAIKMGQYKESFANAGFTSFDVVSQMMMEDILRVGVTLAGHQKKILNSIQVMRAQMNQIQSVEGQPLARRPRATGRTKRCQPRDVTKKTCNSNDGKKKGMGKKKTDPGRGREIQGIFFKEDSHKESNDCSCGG
Chain of Jak2 (O60674 whole entry, looked up): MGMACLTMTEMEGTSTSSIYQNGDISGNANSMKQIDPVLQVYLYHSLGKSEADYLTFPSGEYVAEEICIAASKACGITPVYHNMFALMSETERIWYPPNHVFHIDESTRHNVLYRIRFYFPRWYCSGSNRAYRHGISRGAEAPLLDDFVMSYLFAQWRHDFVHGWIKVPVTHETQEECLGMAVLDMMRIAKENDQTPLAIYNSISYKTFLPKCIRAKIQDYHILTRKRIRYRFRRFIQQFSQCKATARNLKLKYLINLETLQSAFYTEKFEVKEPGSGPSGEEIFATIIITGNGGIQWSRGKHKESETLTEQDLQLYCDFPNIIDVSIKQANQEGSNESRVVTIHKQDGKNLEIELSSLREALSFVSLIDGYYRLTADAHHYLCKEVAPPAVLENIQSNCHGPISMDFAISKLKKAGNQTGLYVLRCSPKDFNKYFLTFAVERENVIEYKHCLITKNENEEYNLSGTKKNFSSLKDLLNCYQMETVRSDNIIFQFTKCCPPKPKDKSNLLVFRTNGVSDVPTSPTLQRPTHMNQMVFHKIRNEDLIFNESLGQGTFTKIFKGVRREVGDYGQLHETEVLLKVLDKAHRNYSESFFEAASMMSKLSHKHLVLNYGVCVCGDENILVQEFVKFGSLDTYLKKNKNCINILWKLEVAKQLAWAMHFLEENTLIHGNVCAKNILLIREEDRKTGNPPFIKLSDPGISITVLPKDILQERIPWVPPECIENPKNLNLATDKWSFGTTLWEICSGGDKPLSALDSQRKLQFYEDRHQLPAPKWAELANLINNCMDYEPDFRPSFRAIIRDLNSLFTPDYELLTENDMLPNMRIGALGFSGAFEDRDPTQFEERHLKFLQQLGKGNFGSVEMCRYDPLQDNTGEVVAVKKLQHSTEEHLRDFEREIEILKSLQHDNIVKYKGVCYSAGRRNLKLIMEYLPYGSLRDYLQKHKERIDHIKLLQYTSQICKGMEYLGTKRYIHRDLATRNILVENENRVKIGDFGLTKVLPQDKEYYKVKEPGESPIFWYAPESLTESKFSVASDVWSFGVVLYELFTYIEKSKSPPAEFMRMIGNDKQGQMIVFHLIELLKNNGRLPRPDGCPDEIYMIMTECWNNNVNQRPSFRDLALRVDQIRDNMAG
Chain of Fyn (P06241 whole entry, looked up): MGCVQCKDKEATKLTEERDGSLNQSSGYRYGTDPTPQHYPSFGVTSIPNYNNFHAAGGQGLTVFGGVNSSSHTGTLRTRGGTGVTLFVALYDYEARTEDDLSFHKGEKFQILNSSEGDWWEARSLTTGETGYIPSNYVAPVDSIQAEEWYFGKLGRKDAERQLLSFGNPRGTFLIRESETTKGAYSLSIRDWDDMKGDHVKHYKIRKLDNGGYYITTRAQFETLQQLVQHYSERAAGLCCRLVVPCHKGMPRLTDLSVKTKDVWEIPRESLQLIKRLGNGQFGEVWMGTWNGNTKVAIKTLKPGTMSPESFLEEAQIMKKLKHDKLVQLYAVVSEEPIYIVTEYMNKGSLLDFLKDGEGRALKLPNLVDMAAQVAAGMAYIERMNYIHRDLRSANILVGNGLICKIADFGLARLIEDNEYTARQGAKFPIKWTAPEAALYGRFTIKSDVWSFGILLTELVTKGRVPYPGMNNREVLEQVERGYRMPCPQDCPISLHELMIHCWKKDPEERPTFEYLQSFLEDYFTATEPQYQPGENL
Chain of Grb2 SH2 (P62993 whole entry, looked up, the tested form may be a part): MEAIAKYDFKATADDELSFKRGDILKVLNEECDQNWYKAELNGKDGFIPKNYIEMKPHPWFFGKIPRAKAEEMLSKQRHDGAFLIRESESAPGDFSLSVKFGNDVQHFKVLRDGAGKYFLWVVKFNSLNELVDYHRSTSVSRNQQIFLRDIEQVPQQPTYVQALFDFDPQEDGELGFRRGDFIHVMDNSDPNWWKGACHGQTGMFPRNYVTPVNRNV

Sequence	phosphorylation enrichment (Jak2)	phosphorylation enrichment (c-Src)	phosphorylation enrichment (MERTK)	phosphorylation enrichment (EPHB1)	phosphorylation enrichment (Fes)	phosphorylation enrichment (EPHB2)	phosphorylation enrichment (c-Abl (mouse))	phosphorylation enrichment (Fer (mouse))	phosphorylation enrichment (FGFR3)	phosphorylation enrichment (AncSZ)	phosphorylation enrichment (FGFR1)	phosphorylation enrichment (Fyn)	phosphorylation enrichment (Hck)	SH2 binding enrichment (c-Src SH2)	SH2 binding enrichment (SHP2-C SH2)	SH2 binding enrichment (Grb2 SH2)
HESEIYCKVCF [CSRP3_Y57_YF]	1.21	6.41	3.7	0.854	1.11	1.42	1.17	2.49	0.89	1.52	0.821	5.35	7.63	1.54	1.35	1.44
WHHTFYNEPRV [ACTA1_Y93_L96P]	0.794	0.508	0.59	0.573	1.03	0.497	0.709	0.582	0.561	0.965	0.522	0.429	0.552	1.57	1.07	1.4
PHMQTYEVDHN [SDHB_Y61_L65H]	0.94	1.04	0.425	0.758	1.01	3.83	0.864	0.571	0.783	1.31	0.676	1.03	0.506	0.591	0.604	1.09
SQSPHYFRSGQ [GPATCH8_Y1038_R1043Q]	0.538	0.427	0.419	0.435	0.524	0.316	0.456	0.359	0.405	0.551	0.366	0.345	0.325	0.484	0.533	0.869
TEALFYTDDTA [ADPRS_Y75_YF]	1.17	0.634	0.541	0.643	1.44	0.614	0.787	0.557	0.754	1.26	0.535	0.568	0.602	0.615	0.675	0.739
AQMAMYFWEMS [TRPM4_Y577_G582S]	1.61	2.52	2.5	1.09	1.73	1.05	1.14	0.9	2.88	1.86	3.42	1.15	1.18	0.852	1.08	1.15
EPFKVYRIVPE [IRF8_Y110_YF]	0.526	0.588	0.453	0.428	0.698	0.454	0.43	0.424	0.485	0.572	0.468	0.462	0.4	0.506	0.511	0.774
EMTRNYIIFIE [BCO2_Y294_G289E]	1.06	0.464	0.513	0.51	1.08	0.569	0.572	0.487	0.683	1.1	0.575	0.586	0.534	0.625	0.903	1.19
KKFVPYFDLFM [IPO5_Y530_E525K_YF]	1.14	0.526	0.645	0.722	1.35	0.707	0.773	0.53	0.898	1.29	0.79	0.479	0.571	0.878	0.831	1.58
LKLWDYSRGRC [WDR5B_Y239]	0.724	0.39	0.736	0.73	1.19	1.01	0.643	0.796	0.694	0.966	0.597	0.66	0.451	0.74	0.501	0.99
ATGGFYSYGGG [KRT24_Y120]	0.858	1.26	11.6	0.881	1.11	0.885	0.763	4.4	0.659	0.906	0.506	2.39	1.8	0.858	0.871	0.82
GSTLSYFGLAT [P2RX7_Y343_A348T]	5.4	0.595	0.637	0.635	0.912	0.5	0.998	0.545	1.36	1.09	1.36	0.639	0.687	0.595	0.751	0.893
QMEKICTQQIQ [CCNB1IP1_Y125_Y125C]	1.24	0.573	0.461	0.707	1.64	0.647	0.986	0.537	0.948	1.36	1	0.486	0.409	0.486	0.558	0.834
RSSKTYLKTRS [LPL_Y329_M328T]	0.596	0.856	0.985	0.609	0.967	0.561	0.853	0.708	0.583	0.739	0.499	0.593	0.706	0.758	0.875	1.23
